Assay results from the RNAGym collection of RNA variant scans (doi:10.1073/pnas.2313332121).
Variants at the floor of the assay were thinned out.

B1: TPR 5TU (parent)
chain: GGAUCUUCUCGAUCUAACAAAAAAGACAAAUCUGCCACAAAGCUUGAGAGCAUCUUCGGAUGCAGAGGCGGCAGCCUUCGGUGGCGCGAUAGCGCCAACGUUCUCAACUAUGACACGCAAAACGCGUGCUCCGUUGAAUGGAGUUUAUCAUG

Variants of: B1
Experiment: polymerase ribozyme fitness, log enrichment relative to wild type (log ratio); higher = more active; in vitro selection for triplet polymerase activity
How it was run: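 The heterodimeric triplet polymerase ribozyme's subunits were each mutagenized into PCR-built libraries and transcribed. Every library was selected once, in triplicate, by annealing with a biotinylated primer, the partner subunit and triplets, incubating frozen at −7 °C, gel-excising extended constructs, capturing on streptavidin beads and running RT-PCR. Input and output libraries were Illumina-sequenced, with genotypes kept only at ≥10 input reads and ≥1 read per output. Fitness, from inverse-variance-weighted replicate averages, is the base-2 logarithm of genotype enrichment over wild-type enrichment.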
In the case of GGAUCUUCUCGAUCUAGCAAAAAAGACAAAUCUGCCACAAAGCUUGAGAGCAUCUUCGGAUGCAGAGGCGGCAGUCUUCGGUGGCGCGAUAGCGUCAACGUUCUCAACUAUGACACGCAAAACGCGUGCUCCGUUGAAUGGAGUUUAUCAUG, the “polymerase ribozyme fitness (log ratio)” value is reported as 0.0451. In the case of GGAUCUUCUCGAUCUAGCAAAAAAGACAAAUCUGCCACAAACAUUGAGAGCAUCUUCGGAUGCAGAGGCGGCAGCCUUCGGUGGAGCGAUAGCGCCAACGUUCUCAACUAUGACACGCAAAACGCGUGCUCCGUUGAAUGGAUUUUAUCAUG, the “polymerase ribozyme fitness (log ratio)” value is reported as no more than -4.2. With GGAUCUUCUCGAUCUAGCAAAAAAGACAAAUCUGCCACAAAGCUUGAGAGCAUCUUCGGAUGCAGAGGCGGCAGCCUUCGGUGGCGCGAUAGGGUCAACGUUCUCAACUAUGACACGCAAAACGCGUGCUCCGUUGAAUGGAGUUUAUCAUG the “polymerase ribozyme fitness (log ratio)” value was no more than -4.2. With GGAUCUUCUCGAUCUAGCAAAAAAGACAAAUCUACCACAAAGCUUGAGAGCAUCUACGAAUGCAGAGGCGGCAGCCUGCGGUGGCGCGAUAGCGCCAACGUUCUCAACUAUGACACGCAAAACGCGUGCUCCGUUGAAUGGAGUUUAUCAUG the “polymerase ribozyme fitness (log ratio)” value was no more than -4.2. For GGAUCUUCUCGAUCUAGCAAAAAAGACAAAUCUGCCACAAAGCUUGAGAGCAUCUUCGGAUGCAGAGGCGGCAGCCUUCGGUGGAGCGAUAGCGCCAACGUUCUCAACUAUGACACGCAAAACGCGUGAUCCGUUGAAUGGAGUUUAUCAUG, the “polymerase ribozyme fitness (log ratio)” value was -2.88. In the case of GGAUCUUCUCGAUCUAGCAAAAAAGACAAAUCUGCCACAAAGCUUGAGAGCAUCUUCGGAUGCAGAGGCGGCAGCCUUCGGUGGCGCGAUAGUGCCAACGUUCUCAACUAUGACACGCAAAACGCGUGCUCCGUUGAAUGGAGUUUAUCAUG, the “polymerase ribozyme fitness (log ratio)” value is reported as -0.578. In the case of GGAUCUUCUCGAUCUAGCAAAAAAGACAAAUCUGCCACAAAGCUUGAGAGCAUCUUCGGAUGCAGAGGCGGCAGCCUUCGGUGGCGCGAUAGGGCCAACGUUCUCAACUAUGACACGCAAAACGCGUGCUCCGUUGAAUGGAGUUUAUCAUG, the “polymerase ribozyme fitness (log ratio)” value is reported as -2.89. For GGAUCUUCUCGAUCUAGCAAAAAAGACAAAUCUGCCACAAAGCUUGAGAGCAUCUUCGGAUGCAGAGGCGGCAGCCUUCGGUGGCGCGAUAGAGCCAACGUUCUCAACUAUGACACGCAAAACGCGUGCUCCGUUGAAUGGAGUUUAUCAUG, the “polymerase ribozyme fitness (log ratio)” value was -2.46. In the case of GGAUCUUCUCGAUCUAGCAAAAAAGACAAAUCUGCCACAAAGCUUGAGAGCAUCUUCGGAUGCAGAGGCGGCAGCCUUCGGUGGUGCGAUAGCGCCAACGUUCUCAACUAUGACUCGCAAAACGAGUGCUCCGUUGAAUGGAGGUUAUCCUG, the “polymerase ribozyme fitness (log ratio)” value is reported as no more than -4.2. For GGAUCUUCUCGAUCUAGCAAAAAAGACAAAUCUGCCACAAAGCUUGACAGCAUCUUCGGAUGCAGAGGCGGCAGCCUUCGGUGGCGCGAUAGCAUCAACGUUCUCAACUAUGACACGCAAAACGCGUGCUCCGUUGAAUGGAGUUUAUCAUG, the “polymerase ribozyme fitness (log ratio)” value was -3.29. With GGAUCUUCUCGAUCUAGCAAAAAAGACAAAUCUGCCACAAAGCUUGAGAGCAUCUUCGGAUGCAGAGGCGGCAGCCUUCGGUGGCGCGAUAGCGCGAACGUUCUCAACUAUGACACGCAAAACGCGUGCUCCGUUGAAUGGAGUUUAUCAUG the “polymerase ribozyme fitness (log ratio)” value was -1.29. For GGAUCUUCUCGAUCUAGCAAAAAAGACAAAUCUGCCACAAAGCUUGAGAGCAUCUUCGGAUGCAGAGGCGGCAGCCUUCGGUGGCGCGAUAGCGCUAACGUUCUCAACUAUGACACGCAAAACGCGUGCUCCGUUGAAUGGAGUUUAUCAUG, the “polymerase ribozyme fitness (log ratio)” value was 0.456. In the case of GGAUCUUCUCGAUCUAGCAAAAAAGACAAAUCUGCCACAAAGCUUGAAAGCAUCUUCGGAUGCAGAGGCGGCAGCCUUCGGUGGCGCGAUAGCGCCAACGUUCUCAACUAUGACACGCAAAACGCGUGCUCCGUUGAAUGGAGUUUAUCAUG, the “polymerase ribozyme fitness (log ratio)” value is reported as -1.03. In the case of GGAUCUUCUCGAUCUAGCAAAAAAGACAAAUCUGCCACAAAGCUUGAGAGCAUCUUCGGAUGCAGAGGCGGCAGCCUUCGGUGGCGCGAUAGCGCAAACGUUCUCAACUAUGACACGCUAAACGCGUGCUCCGUUGAAUGGAGUUUAUCAUG, the “polymerase ribozyme fitness (log ratio)” value is reported as -0.596. For GGAUCUUCUCGAUCUAGCAAAAAAGACAAAUCUGCCACAAAGCUUGAGAGCAUCUUCGGAUGCAGAGGCGGCAGCCUUCGGUGGCGCGAUAGCGCCAAUGUUCUCAACUAUGACACGCAAAACGCGUGCUCCGUUGAAUGGAGUUUAUCAUG, the “polymerase ribozyme fitness (log ratio)” value was -0.271. With GGAUCUUCUCGAUCUAGCAAAAAAGACAAAUCUGCCACAAAGCUUGAGAGCAUCUUCGGAUGCAGAGGCGGCAGCCUUCGGUGGCGCGAUAGCGCAGACGCUCUCAACUAUGACACGCAAAACGCGUGCUCCGUUGAAUGGAGUUUACCAUG the “polymerase ribozyme fitness (log ratio)” value was -3.67. In the case of GGAUCUUCUCGAUCUAGCAAAAAACACAAAUCUGCCACAAAGCUUGAGAACAUCUUCGGAUGCAGAGGCGGCAGCCUUCGGUGGCACGAUAGGGCCAACGUUCUCAACUAUGACACGCAAAACGCGUGCUCCGUUGAAUGGAGUUUAUCAUG, the “polymerase ribozyme fitness (log ratio)” value is reported as no more than -4.2. With GGAUCUUCUCGAUCUAGCAAAAAAGACAAAUCUGCCACAAAGCUUGAGAGCAUCUUCGGAUGCAGAGGCGGCAGCUUUCGGUGGCGCGAUAGCGCCAACGUUCUCAACUAUGACACGCAAAACGCGUGCUCCGUUGAAUGGAGUUUAUCAUG the “polymerase ribozyme fitness (log ratio)” value was -0.119. With GGAUCUUCUCGAUCUAGCAAAAAAGACAAAUCUGCCACAAAGCUUGAGAGCAUCUUCGGAUGCAGAGGCGGCAGCCUUCGGUGGCGCGAUAGCGUCAACGUUCUCAACUAUGACACGCAAAACGCGUGCUCCGUUGAAUGAAGUUUAUCAUG the “polymerase ribozyme fitness (log ratio)” value was 0.672.
